Consider two molecules from PMC8092405 (Proceedings of the National Academy of Sciences of the …, 2021).

As a reminder, the Ki is a dissociation constant, usually derived from enzyme kinetics or from competition with a known ligand. Low readings indicate a stronger hold on the target, high ones a looser hold on the target.

The test addresses human G protein-coupled receptor 182 (GPR182) (human, UniProt O15218 1-404).

Chain of human G protein-coupled receptor 182 (GPR182) (O15218 whole entry): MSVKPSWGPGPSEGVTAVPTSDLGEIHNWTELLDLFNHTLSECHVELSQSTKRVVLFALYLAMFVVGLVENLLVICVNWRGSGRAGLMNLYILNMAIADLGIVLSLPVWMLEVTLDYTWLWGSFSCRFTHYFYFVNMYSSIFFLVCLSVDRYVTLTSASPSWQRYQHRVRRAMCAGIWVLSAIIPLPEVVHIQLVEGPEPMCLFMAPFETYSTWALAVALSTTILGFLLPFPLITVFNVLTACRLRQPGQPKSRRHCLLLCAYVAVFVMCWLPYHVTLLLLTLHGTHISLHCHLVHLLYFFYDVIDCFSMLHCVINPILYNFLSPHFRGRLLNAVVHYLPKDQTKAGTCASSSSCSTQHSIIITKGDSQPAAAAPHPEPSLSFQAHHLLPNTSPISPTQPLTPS

B1: human CCL19, unlabeled (ligand)
chain: GTNDAEDCCLSVTQKPIPGYIVRNFHYLLIKDGCRVPAVVFTTLRGRQLCAPPDQPWVERIIQRLQRTSAKMKRRSS
For the molecule B1, the Ki is 260 nM.

B2: human CXCL13, unlabeled (ligand)
chain: VLEVYYTSLRCRCVQESSVFIPRRFIDRIQILPRGNGCPRKEIIVWKKNKSIVCVDPQAEWIQRMMEVLRKRSSSTLPVPVFKRKIP
Consider B2, for which the Ki is 9 nM.
